According to CN107793479A (SHANGHAI JIBEI BIOLOGICAL TECH CO LTD, dated 2018):

T1: CD19抗原 (B lymphocyte antigen CD19) (human, UniProt P15391 20-291, limits assumed, biotin label in Examples 2-4 (site not stated))
T1 construct: also called CD19-his; CD19-his-biotin; not shown: his tag
T1 sequence (looked up): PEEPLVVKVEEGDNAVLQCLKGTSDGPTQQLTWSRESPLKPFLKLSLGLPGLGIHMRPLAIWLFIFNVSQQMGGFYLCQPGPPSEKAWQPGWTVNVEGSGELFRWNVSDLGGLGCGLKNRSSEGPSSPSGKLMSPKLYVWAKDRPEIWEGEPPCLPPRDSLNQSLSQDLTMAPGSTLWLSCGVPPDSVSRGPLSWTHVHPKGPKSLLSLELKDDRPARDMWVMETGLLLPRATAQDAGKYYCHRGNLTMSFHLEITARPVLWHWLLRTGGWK


Target: T1, CD19抗原 (B lymphocyte antigen CD19)
Assay: ELISA of periplasmic extract dilutions on a CD19-coated plate, OD450

binding result | Binder
binds | Combo-5 (scFv in periplasmic extract) (scFv, Soluble scFv in E. coli periplasmic extract (PPE), not purified) scFv: EVKLQESGPGLVAPSQSLSVTCTVSGWSLEDYGVSWIRQSPRKGLEWLGGIIGSQTTYYLAGLKSRLTIIKDNSKSQVFLKMNSLQTDDTAIYYCAKHRYYGGSFDMDYWGQGTSVTVSSGGGGSGGGGSGGGGSDIQMTQTTSSLSASLGDRVTISCRASQDISKYLNWYQQKPDGTVKLLIYHTSRLHSGVPSRFSGSGSGTDYSLTISNLEQEDIATYFCQQGNTLPYTFGGGTKLEIT
binds | Combo-13 (scFv in periplasmic extract) (scFv, Soluble scFv in E. coli periplasmic extract (PPE), not purified) scFv: EVKLQESGPGLVAPSQSLSVTCTVSGVSLPDYGVSWIRQSPRKGLEWLGVIWGSETTYYNSALKSRLTIIKDNSKSQVFLKMNSLQTDDTAIYYCAKHYYYGGSYAMDYWGQGTSVTVSSGGGGSGGGGSGGGGSDIQMTQTTSSLSASLGDRVTISCRASMDIKKYLNWYQQKPDGTVKLLIYQTSRLAWGVPSRFSGSGSGTDYSLTISNLEQEDIATYFCQQGKKAPLTFGGGTKLEIT
binds | Combo-7 (scFv in periplasmic extract) (scFv, Soluble scFv in E. coli periplasmic extract (PPE), not purified) scFv: EVKLQESGPGLVAPSQSLSVTCTVSGWSLEDYGVSWIRQSPRKGLEWLGGIIGSQTTYYLAGLKSRLTIIKDNSKSQVFLKMNSLQTDDTAIYYCAKHWYYGGSFAMDYWGQGTSVTVSSGGGGSGGGGSGGGGSDIQMTQTTSSLSASLGDRVTISCRASQDISKYLNWYQQKPDGTVKLLIYHTSRLHSGVPSRFSGSGSGTDYSLTISNLEQEDIATYFCQQGNTLPYTFGGGTKLEIT
binds | Combo-8 (scFv in periplasmic extract) (scFv, Soluble scFv in E. coli periplasmic extract (PPE), not purified) scFv: EVKLQESGPGLVAPSQSLSVTCTVSGWSLEDYGVSWIRQSPRKGLEWLGVIWGSETTYYNSALKSRLTIIKDNSKSQVFLKMNSLQTDDTAIYYCAKHWYYGGSFAMDYWGQGTSVTVSSGGGGSGGGGSGGGGSDIQMTQTTSSLSASLGDRVTISCRASQDISKYLNWYQQKPDGTVKLLIYHTSRLHSGVPSRFSGSGSGTDYSLTISNLEQEDIATYFCQQGNTLPYTFGGGTKLEIT
binds | Combo-10 (scFv in periplasmic extract) (scFv, Soluble scFv in E. coli periplasmic extract (PPE), not purified) scFv: EVKLQESGPGLVAPSQSLSVTCTVSGVSLPDYGVSWIRQPPRKGLEWLGVIWGSETTYYNSALKSRLTIIKDNSKSQVFLKMNSLQTDDTAIYYCAKHYYYGGSYAMDYWGQGTSVTVSSGGGGSGGGGSGGGGSDIQMTQTTSSLSASLGDRVTISCRASQPIRRYLNWYQQKPDGTVKLLIYHTSRLHSGVPSRFSGSGSGTDYSLTISNLEQEDIATYFCQQGKKAPLTFGGGTKLEIT
binds | Combo-6 (scFv in periplasmic extract) (scFv, Soluble scFv in E. coli periplasmic extract (PPE), not purified) scFv: EVKLQESGPGLVAPSQSLSVTCTVSGWSLEDYGVSWIRQSPRKGLEWLGVIWGSETTYYNSALKSRLTIIKDNSKSQVFLKMNSLQTDDTAIYYCAKHRYYGGSFDMDYWGQGTSVTVSSGGGGSGGGGSGGGGSDIQMTQTTSSLSASLGDRVTISCRASQDISKYLNWYQQKPDGTVKLLIYHTSRLHSGVPSRFSGSGSGTDYSLTISNLEQEDIATYFCQQGNTLPYTFGGGTKLEIT
binds | Combo-14 (scFv in periplasmic extract) (scFv, Soluble scFv in E. coli periplasmic extract (PPE), not purified) scFv: EVKLQESGPGLVAPSQSLSVTCTVSGVSLPDYGVSWIRQSPRKGLEWLGVIWGSETTYYNSALKSRLTIIKDNSKSQVFLKMNSLQTDDTAIYYCAKHYYYGGSYAMDYWGQGTSVTVSSGGGGSGGGGSGGGGSDIQMTQTTSSLSASLGDRVTISCRASMDIKKYLNWYQQKPDGTVKLLIYHTSRLHSGVPSRFSGSGSGTDYSLTISNLEQEDIATYFCQQGKKAPLTFGGGTKLEIT
binds | Combo-9 (scFv in periplasmic extract) (scFv, Soluble scFv in E. coli periplasmic extract (PPE), not purified) scFv: EVKLQESGPGLVAPSQSLSVTCTVSGVSLPDYGVSWIRQPPRKGLEWLGVIWGSETTYYNSALKSRLTIIKDNSKSQVFLKMNSLQTDDTAIYYCAKHYYYGGSYAMDYWGQGTSVTVSSGGGGSGGGGSGGGGSDIQMTQTTSSLSASLGDRVTISCRASQPIRRYLNWYQQKPDGTVKLLIYQTSRLAWGVPSRFSGSGSGTDYSLTISNLEQEDIATYFCQQGKKAPLTFGGGTKLEIT
